Test results as given in paper PMC10019796 (Scientific Reports, 2023).

B1: REGN10933 (Casirivimab) Fab wild type (Fab, V domains shown)
VH: QVQLVESGGGLVKPGGSLRLSCAASGFTFSDYYMSWIRQAPGKGLEWVSYITYSGSTIYYADSVKGRFTISRDNAKSSLYLQMNSLRAEDTAVYYCARDRGTTMVPFDYWGQGTLVTVSS
VL: DIQMTQSPSSLSASVGDRVTITCQASQDITNYLNWYQQKPGKAPKLLIYAASNLETGVPSRFSGSGSGTDFTFTISGLQPEDIATYYCQQYDNLPLTFGGGTKVEIK
notes: Fab heavy chain of REGN10933; Fab light chain of REGN10933; Polycistronic gene, light chain upstream of heavy chain; also called REGN10933 wild type; REGN10933 Fab
B2: REGN10933 (N93Q) Fab (Fab, V domains shown)
VH: QVQLVESGGGLVKPGGSLRLSCAASGFTFSDYYMSWIRQAPGKGLEWVSYITYSGSTIYYADSVKGRFTISRDNAKSSLYLQMNSLRAEDTAVYYCARDRGTTMVPFDYWGQGTLVTVSS
VL: DIQMTQSPSSLSASVGDRVTITCQASQDITNYLNWYQQKPGKAPKLLIYAASNLETGVPSRFSGSGSGTDFTFTISGLQPEDIATYYCQQYDQLPLTFGGGTKVEIK
B3: REGN10933 (A75S) Fab (Fab, V domains shown)
VH: QVQLVESGGGLVKPGGSLRLSCAASGFTFSDYYMSWIRQAPGKGLEWVSYITYSGSTIYYADSVKGRFTISRDNSKSSLYLQMNSLRAEDTAVYYCARDRGTTMVPFDYWGQGTLVTVSS
VL: DIQMTQSPSSLSASVGDRVTITCQASQDITNYLNWYQQKPGKAPKLLIYAASNLETGVPSRFSGSGSGTDFTFTISGLQPEDIATYYCQQYDNLPLTFGGGTKVEIK
B4: REGN10933 (M104N) Fab (Fab, V domains shown)
VH: QVQLVESGGGLVKPGGSLRLSCAASGFTFSDYYMSWIRQAPGKGLEWVSYITYSGSTIYYADSVKGRFTISRDNAKSSLYLQMNSLRAEDTAVYYCARDRGTTNVPFDYWGQGTLVTVSS
VL: DIQMTQSPSSLSASVGDRVTITCQASQDITNYLNWYQQKPGKAPKLLIYAASNLETGVPSRFSGSGSGTDFTFTISGLQPEDIATYYCQQYDNLPLTFGGGTKVEIK
B5: REGN10933 (T28E) Fab (Fab, V domains shown)
VH: QVQLVESGGGLVKPGGSLRLSCAASGFEFSDYYMSWIRQAPGKGLEWVSYITYSGSTIYYADSVKGRFTISRDNAKSSLYLQMNSLRAEDTAVYYCARDRGTTMVPFDYWGQGTLVTVSS
VL: DIQMTQSPSSLSASVGDRVTITCQASQDITNYLNWYQQKPGKAPKLLIYAASNLETGVPSRFSGSGSGTDFTFTISGLQPEDIATYYCQQYDNLPLTFGGGTKVEIK
B6: REGN10987 (Imdevimab) Fab wild type (Fab, V domains shown)
VH: QVQLVESGGGVVQPGRSLRLSCAASGFTFSNYAMYWVRQAPGKGLEWVAVISYDGSNKYYADSVKGRFTISRDNSKNTLYLQMNSLRTEDTAVYYCASGSDYGDYLLVYWGQGTLVTVSS
VL: QSALTQPASVSGSPGQSITISCTGTSSDVGGYNYVSWYQQHPGKAPKLMIYDVSKRPSGVSNRFSGSKSGNTASLTISGLQSEDEADYYCNSLTSISTWVFGGGTKLTVL
notes: Fab heavy chain of REGN10987; Fab light chain of REGN10987; Polycistronic gene, light chain upstream of heavy chain; also called REGN10987 wild type; REGN10987 Fab
B7: REGN10987 (S95K) Fab (Fab, V domains shown)
VH: QVQLVESGGGVVQPGRSLRLSCAASGFTFSNYAMYWVRQAPGKGLEWVAVISYDGSNKYYADSVKGRFTISRDNSKNTLYLQMNSLRTEDTAVYYCASGSDYGDYLLVYWGQGTLVTVSS
VL: QSALTQPASVSGSPGQSITISCTGTSSDVGGYNYVSWYQQHPGKAPKLMIYDVSKRPSGVSNRFSGSKSGNTASLTISGLQSEDEADYYCNSLTKISTWVFGGGTKLTVL
B8: REGN10987 (N31D) Fab (Fab, V domains shown)
VH: QVQLVESGGGVVQPGRSLRLSCAASGFTFSDYAMYWVRQAPGKGLEWVAVISYDGSNKYYADSVKGRFTISRDNSKNTLYLQMNSLRTEDTAVYYCASGSDYGDYLLVYWGQGTLVTVSS
VL: QSALTQPASVSGSPGQSITISCTGTSSDVGGYNYVSWYQQHPGKAPKLMIYDVSKRPSGVSNRFSGSKSGNTASLTISGLQSEDEADYYCNSLTSISTWVFGGGTKLTVL

Key:
[1] = target: T1, mtDsbC-SARS-CoV-2 RBD Alpha variant (B.1.1.7) fusion protein (SARS-CoV-2, Alpha (B.1.1.7), RBD N501Y, N501Y, biotin (EZ-Link NHS-PEG4-Biotin)); experiment: BLI; biotinylated mtDsbC-RBD (20 µg/mL) immobilised on streptavidin (SA) biosensors, Fabs as analytes at three nanomolar concentrations; Octet RED384, 30 °C, 1000 rpm, 1 × PBS Kinetics Buffer; 1:1 interaction model, global fit; settings: both partners purified
T1 construct: also called RBD SARS-CoV-2 (alpha variant); not shown: mtDsbC solubility tag, N-terminal, kept

[2] = target: T2, mtDsbC-SARS-CoV-2 RBD wild type fusion protein (SARS-CoV-2, wild type (Wuhan-Hu-1), UniProt P0DTC2, biotin (EZ-Link NHS-PEG4-Biotin)); experiment: as above; settings: both partners purified
T2 construct: also called RBD SARS-CoV-2 (wild type); mtDsbC-RBD; not shown: mtDsbC solubility tag, N-terminal, kept

Row | Binder | Kd [1] | Kd [2]
1 | B1 | 3.12 nM | 2.84 nM
2 | B2 | 3.42 nM | 2.76 nM
3 | B3 | 2.75 nM | 3.22 nM
4 | B4 | 119 nM | 143 nM
5 | B5 | < 0.001 nM | < 0.001 nM
6 | B6 | 54.1 nM | 43.9 nM
7 | B7 | 22.8 nM | 30.5 nM
8 | B8 | 13.7 nM | 17.9 nM
